Test results: the RNAGym collection of RNA variant scans (doi:10.1038/ncomms11558)

B1: mRNA-splicing (parent)
chain: GAUCCAGAUCUAACUUGGGGUGGCUUUGUCUUCUUCUUUUGCCAAUUCCACUAAUUGUUUGGG

Variants of: B1
Test: exon inclusion enrichment score (log2 ratio to wild type); higher = more inclusion; FAS exon 6 minigene, HEK293

Row | Variant | exon inclusion enrichment score
1 | U58C | -0.116
2 | U58A | 0.099
3 | U58G | -0.27
4 | U60C | -0.19
5 | U60A | -2.55
6 | U60G | -0.709
7 | G63A | -5.7
8 | G63U | -5.1
9 | G63C | -6.23
10 | U56G | 0.059
11 | G62A | -0.115
12 | G62U | -0.581
13 | G62C | -0.199
14 | G61A | -1.32
15 | G61U | -0.154
16 | G61C | 0.061
17 | G57U | 0.003
18 | G57C | -0.537
19 | G57A | -0.066
20 | U59C | -0.032
21 | U59G | -0.228
22 | U59A | -0.31
